In the supplement of paper PMC6757056:
± gives the standard deviation of the averaged measurements.

B1: library; a variant is named by its letters at N, in order (parent)
chain: GCUGUCACCGGAAUACCAGCAUCGUCUUGAUGCCCUUGGAAGUCCGGUCUGAUGAGUCCNNNNNGGACGAAACAGC

Assays:
theophylline [1] = variants of: B1; assay: FACS-Seq fitted mean relative fluorescence mCherry/BFP without ligand (log10 relative fluorescence); higher = higher reporter protein expression; details: HEK293T, ligand present: no
Summary of the method: (§1)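 HEK293T libraries were lentivirally transduced with an mCherry reporter carrying the ribozyme switch and an EF1α-BFP marker, enriched, and incubated for 48 h with or without ligand before sorting into 6 bins by mCherry/BFP. Genomic DNA from each bin was PCR-amplified, barcoded and sequenced on MiSeq. Fluorescence is the fitted normal mean of the bin counts. The fit used log10(mCherry/BFP), and means were scaled to five spiked-in control ribozymes.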

theophylline [2] = variants of: B1; assay: normalized RNA/DNA level with ligand (relative to sTRSVctl = 100) (log10 (% of sTRSVctl)); higher = less ribozyme self-cleavage, higher mRNA level; details: ligand concentration (+) RNA-Seq: 5 mM, HEK293T, reporter: mCherry (pCS4076), ligand present: yes
Summary of the method: (§2)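 For each 6-well well, 4 µg of library plasmid encoding mCherry-linked ribozyme switches, or eGFP-linked ones in some ligand experiments, was transfected into HEK293T. Any ligand was added 1 h before transfection, and RNA was extracted with EDTA 72 h after it, then reverse-transcribed, amplified, barcoded and sequenced. RNA level was obtained by dividing RNA reads by DNA reads, normalizing to a spiked-in non-cleaving sequence or to the top sequences, then scaling and log-transforming. The top set was 25 sequences, scaling was ×100 with log10, and ≥100 DNA reads were required.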

theophylline [3] = variants of: B1; assay: normalized RNA/DNA level without ligand (relative to sTRSVctl = 100) (log10 (% of sTRSVctl)); higher = less ribozyme self-cleavage, higher mRNA level; details: HEK293T, reporter: mCherry (pCS4076), ligand present: no
Summary of the method: as §2

theophylline [4] = variants of: B1; assay: FACS-Seq fitted mean relative fluorescence mCherry/BFP with ligand (log10 relative fluorescence); ligand concentration (+) FACS-Seq: 1 mM; higher = higher reporter protein expression; details: HEK293T, ligand present: yes
Summary of the method: as §1

Variant | FACS-Seq fitted mean (log10) (theophylline [1]) | normalized RNA/DNA level with ligand (log10) (theophylline [2]) | normalized RNA/DNA level without ligand (log10) (theophylline [3]) | FACS-Seq fitted mean (log10) (theophylline [4])
GCUGUCACCGGAAUACCAGCAUCGUCUUGAUGCCCUUGGAAGUCCGGUCUGAUGAGUCCUCGGUGGACGAAACAGC [UCGGU] | 0.776 ± 0.2 | 2.084 ± 0.0052 | 1.8 ± 0.16 | 0.68 ± 0.021
GCUGUCACCGGAAUACCAGCAUCGUCUUGAUGCCCUUGGAAGUCCGGUCUGAUGAGUCCCCGGCGGACGAAACAGC [CCGGC] | 0.695 ± 0.065 | 2 ± 0.13 | 1.97 ± 0.044 | 0.721 ± 0.011
GCUGUCACCGGAAUACCAGCAUCGUCUUGAUGCCCUUGGAAGUCCGGUCUGAUGAGUCCCCGGUGGACGAAACAGC [CCGGU] | 0.937 ± 0.27 | 1.97 ± 0.064 | 1.84 ± 0.064 | 0.944 ± 0.14
GCUGUCACCGGAAUACCAGCAUCGUCUUGAUGCCCUUGGAAGUCCGGUCUGAUGAGUCCACGGUGGACGAAACAGC [ACGGU] | 0.778 ± 0.062 | 1.89 ± 0.13 | 1.7 ± 0.095 | 1.004 ± 0.0021
GCUGUCACCGGAAUACCAGCAUCGUCUUGAUGCCCUUGGAAGUCCGGUCUGAUGAGUCCACGUCGGACGAAACAGC [ACGUC] | 1.11 ± 0.098 | 1.99 ± 0.031 | 1.91 ± 0.038 | 1.1245 ± 0.0011
GCUGUCACCGGAAUACCAGCAUCGUCUUGAUGCCCUUGGAAGUCCGGUCUGAUGAGUCCACGUGGGACGAAACAGC [ACGUG] | 0.7349 ± 0.0044 | 1.99 ± 0.14 | 1.76 ± 0.033 | 0.974 ± 0.16
GCUGUCACCGGAAUACCAGCAUCGUCUUGAUGCCCUUGGAAGUCCGGUCUGAUGAGUCCACGUAGGACGAAACAGC [ACGUA] | 0.721 ± 0.11 | 2.011 ± 0.017 | 1.62 ± 0.19 | 0.9207 ± 0.0039
GCUGUCACCGGAAUACCAGCAUCGUCUUGAUGCCCUUGGAAGUCCGGUCUGAUGAGUCCCCGUAGGACGAAACAGC [CCGUA] | 0.864 ± 0.056 | 2 ± 0.099 | 1.65 ± 0.12 | 0.992 ± 0.043
GCUGUCACCGGAAUACCAGCAUCGUCUUGAUGCCCUUGGAAGUCCGGUCUGAUGAGUCCCCGUCGGACGAAACAGC [CCGUC] | 0.556 ± 0.018 | 2.11 ± 0.037 | 1.93 ± 0.073 | 0.413 ± 0.034
